The data set concerns the target Cas9 (Streptococcus pyogenes, UniProt Q99ZW2 1-1368). The data set can be described thus: R-loop formation gel assay (deproteinised); sgran50; 5 mM EDTA; efficiency similar to fusions; 25 mM Tris pH 7.5, 106 mM KCl, 50 ug/ml BSA, 5 mM EDTA, 2 mM DTT, 9% glycerol, 37 C; 150 nM protein, 300 nM sgRNA, 25 nM Cy5-dsran50, 75 nM unlabelled MW12 dsDNA competitor; 8% acrylamide TBE gel. Particulars: protein: recombinant, tags: His6, label: 5'-Cy5 on ssran50 strand (strand 2), blunt 50 bp DNA target plus sgRNA, PAM TGG.

Cas9, sequence (Q99ZW2 whole entry, the tested form may be a part): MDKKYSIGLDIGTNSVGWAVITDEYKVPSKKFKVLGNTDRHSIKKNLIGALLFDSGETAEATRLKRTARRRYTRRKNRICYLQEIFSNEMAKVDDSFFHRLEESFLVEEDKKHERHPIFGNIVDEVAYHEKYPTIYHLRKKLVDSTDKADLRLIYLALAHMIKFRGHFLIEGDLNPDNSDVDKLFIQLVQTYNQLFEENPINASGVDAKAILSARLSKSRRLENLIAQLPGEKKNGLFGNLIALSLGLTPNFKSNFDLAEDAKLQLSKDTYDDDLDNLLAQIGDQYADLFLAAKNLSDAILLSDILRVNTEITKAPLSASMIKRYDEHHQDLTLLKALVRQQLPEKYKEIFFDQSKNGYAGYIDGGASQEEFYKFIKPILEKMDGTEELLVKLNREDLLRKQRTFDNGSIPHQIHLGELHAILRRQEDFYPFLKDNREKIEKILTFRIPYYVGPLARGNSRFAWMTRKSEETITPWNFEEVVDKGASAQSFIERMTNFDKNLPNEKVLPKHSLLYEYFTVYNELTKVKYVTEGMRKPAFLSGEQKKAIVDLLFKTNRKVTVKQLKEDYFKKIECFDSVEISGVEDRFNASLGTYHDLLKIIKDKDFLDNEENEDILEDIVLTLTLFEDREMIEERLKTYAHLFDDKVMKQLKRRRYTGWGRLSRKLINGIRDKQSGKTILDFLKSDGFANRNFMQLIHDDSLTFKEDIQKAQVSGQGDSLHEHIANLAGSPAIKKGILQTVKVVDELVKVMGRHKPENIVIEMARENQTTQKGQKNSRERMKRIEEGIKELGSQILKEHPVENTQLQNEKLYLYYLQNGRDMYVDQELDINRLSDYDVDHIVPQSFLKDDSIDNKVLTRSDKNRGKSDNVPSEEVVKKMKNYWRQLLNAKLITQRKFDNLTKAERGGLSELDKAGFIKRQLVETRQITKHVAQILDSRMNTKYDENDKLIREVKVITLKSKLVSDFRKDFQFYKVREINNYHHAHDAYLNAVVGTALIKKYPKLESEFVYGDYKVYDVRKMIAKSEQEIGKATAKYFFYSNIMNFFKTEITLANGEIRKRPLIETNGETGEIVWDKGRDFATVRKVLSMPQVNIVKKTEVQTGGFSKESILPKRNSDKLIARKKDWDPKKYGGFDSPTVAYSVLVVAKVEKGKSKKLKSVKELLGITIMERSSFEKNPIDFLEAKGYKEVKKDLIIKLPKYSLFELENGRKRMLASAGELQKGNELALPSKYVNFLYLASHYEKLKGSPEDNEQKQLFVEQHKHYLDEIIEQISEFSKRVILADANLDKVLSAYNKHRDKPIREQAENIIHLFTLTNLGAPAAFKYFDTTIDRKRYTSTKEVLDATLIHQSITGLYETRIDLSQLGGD

B1: sgran50 + dsran50 (mixed)
RNA: GGUAGACGAUUACAUUGCUACAGUUUUAGAGCUAGAAAUAGCAAGUUAAAAUAAGGCUAGUCCGUUAUCAACUUGAAAAAGUGGCACCGAGUCGGUGCUU
DNA 1: CAACGTCATAGACGATTACATTGCTACATGGAGCTGTCTAGAGGATCCGA
DNA 2: TCGGATCCTCTAGACAGCTCCATGTAGCAATGTAATCGTCTATGACGTTG
In the case of B1, the binding result is “binds”.

(Values after publication PMC7786333, “Integration of diverse DNA substrates by a casposase can be targeted to R-loops in vitro by its fusion to Cas9”.)
